Data as given in publication PMC7969030.

Columns and labels:
Kucore [1] = molecular target: T1, Kucore (Bacillus subtilis, UniProt O34859 1-253); assay: SPR
T1 sequence: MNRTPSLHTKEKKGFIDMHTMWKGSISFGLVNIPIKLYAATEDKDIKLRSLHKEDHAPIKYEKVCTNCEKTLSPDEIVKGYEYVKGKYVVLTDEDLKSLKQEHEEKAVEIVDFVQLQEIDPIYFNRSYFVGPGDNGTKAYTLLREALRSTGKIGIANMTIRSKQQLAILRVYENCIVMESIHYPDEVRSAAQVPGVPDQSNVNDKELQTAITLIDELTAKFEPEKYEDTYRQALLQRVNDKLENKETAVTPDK

Kuwt [2] = molecular target: T2, Kuwt (Bacillus subtilis, UniProt O34859 1-311); assay: SPR
T2 sequence: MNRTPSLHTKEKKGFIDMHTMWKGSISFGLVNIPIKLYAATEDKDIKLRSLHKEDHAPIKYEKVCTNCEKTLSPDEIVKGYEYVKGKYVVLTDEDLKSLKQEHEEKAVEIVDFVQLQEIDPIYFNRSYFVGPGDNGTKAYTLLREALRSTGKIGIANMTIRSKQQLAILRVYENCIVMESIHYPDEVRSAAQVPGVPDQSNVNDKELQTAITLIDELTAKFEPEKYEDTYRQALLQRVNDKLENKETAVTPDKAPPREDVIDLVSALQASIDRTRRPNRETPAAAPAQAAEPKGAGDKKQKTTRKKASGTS

Kuwt;LigD = molecular target: T3, Kuwt;LigD (Bacillus subtilis;Bacillus subtilis, UniProt O34859;O34398 1-311;1-611, |); assay: EMSA
T3 sequence 1: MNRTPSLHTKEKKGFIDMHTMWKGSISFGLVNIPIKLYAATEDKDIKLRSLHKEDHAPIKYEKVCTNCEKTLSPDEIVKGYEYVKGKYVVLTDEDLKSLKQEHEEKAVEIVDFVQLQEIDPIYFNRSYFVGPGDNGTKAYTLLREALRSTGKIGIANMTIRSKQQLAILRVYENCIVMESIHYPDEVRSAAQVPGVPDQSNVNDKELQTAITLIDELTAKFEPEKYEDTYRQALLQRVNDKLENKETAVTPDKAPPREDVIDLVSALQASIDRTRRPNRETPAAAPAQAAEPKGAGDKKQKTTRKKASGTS
T3 sequence 2: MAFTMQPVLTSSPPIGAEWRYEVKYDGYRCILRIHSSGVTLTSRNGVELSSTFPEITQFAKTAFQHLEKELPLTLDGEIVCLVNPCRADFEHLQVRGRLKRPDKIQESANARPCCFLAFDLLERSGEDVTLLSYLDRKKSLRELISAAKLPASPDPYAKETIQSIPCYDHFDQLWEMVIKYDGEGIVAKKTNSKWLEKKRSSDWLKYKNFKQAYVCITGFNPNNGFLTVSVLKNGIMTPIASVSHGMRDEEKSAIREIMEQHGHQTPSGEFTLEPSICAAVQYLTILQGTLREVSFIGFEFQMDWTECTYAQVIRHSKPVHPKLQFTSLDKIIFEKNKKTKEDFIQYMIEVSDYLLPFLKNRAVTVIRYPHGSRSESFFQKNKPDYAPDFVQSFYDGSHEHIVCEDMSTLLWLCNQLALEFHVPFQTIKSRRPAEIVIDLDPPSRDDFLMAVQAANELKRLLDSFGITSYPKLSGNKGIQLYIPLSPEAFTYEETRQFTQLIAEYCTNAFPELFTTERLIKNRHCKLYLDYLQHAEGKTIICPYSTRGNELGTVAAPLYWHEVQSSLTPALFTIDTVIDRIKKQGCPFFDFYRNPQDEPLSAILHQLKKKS

Kucore [3] = molecular target: T1, Kucore; assay: EMSA
Kuwt [4] = molecular target: T2, Kuwt; assay: EMSA

B1: 50 bp blunt DNA (SPR) (dsDNA)
DNA 1: CCTCTAGACCTGTACTACTCGAGAGATCGATCGACAGACGATGACTTAGC
DNA 2: GCTAAGTCATCGTCTGTCGATCGATCTCTCGAGTAGTACAGGTCTAGAGG
modifications: 5' biotin on one strand
For B1, the Kd (Kucore [1]) was 9.3 nM and the Kd (Kuwt [2]) was 6.7 nM.

B2: 50 bp blunt DNA (EMSA, photobleaching) (dsDNA)
DNA 1: CCTCTAGACCTGTACTACTCGAGAGATCGATCGACAGACGATGACTTAGC
DNA 2: GCTAAGTCATCGTCTGTCGATCGATCTCTCGAGTAGTACAGGTCTAGAGG
modifications: 5' 6-FAM on one strand (EMSA)
B2: binds (Kuwt;LigD).

B3: 50 bp DNA with 4 nt overhang (dsDNA)
DNA 1: CCTCTAGACCTGTACTACTCGAGAGATCGATCGACAGACGATGACTTAGC
DNA 2: CTGAGCTAAGTCATCGTCTGTCGATCGATCTCTCGAGTAGTACAGGTCTAGAGG
modifications: 5' 6-FAM on one strand
B3: binds (Kucore [3]); binds (Kuwt [4]).
